Test results published in patent US20230399394A1 (SUNSHINE GUOJIAN PHARMACEUTICAL SHANGHAI, published 2023).
Residue numbers refer to the chain shown, from its start.

T1: Pep5 (human, N-terminal biotin)
T1 construct: Synthetic 20-mer of human IL-33
T1 peptide: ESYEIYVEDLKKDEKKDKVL

T2: Pep3 (human, N-terminal biotin)
T2 construct: Synthetic 20-mer of human IL-33
T2 peptide: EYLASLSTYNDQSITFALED

T3: Pep9 (human, N-terminal biotin)
T3 construct: Synthetic 20-mer of human IL-33
T3 peptide: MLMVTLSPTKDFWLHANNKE

T4: Pep14 (human, N-terminal biotin)
T4 construct: Synthetic 20-mer of human IL-33
T4 peptide: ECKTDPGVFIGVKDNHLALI

T5: Pep13 (human, N-terminal biotin)
T5 construct: Synthetic 20-mer of human IL-33
T5 peptide: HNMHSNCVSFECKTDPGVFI

T6: Pep6 (human, N-terminal biotin)
T6 construct: Synthetic 20-mer of human IL-33
T6 peptide: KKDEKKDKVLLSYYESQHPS

T7: Pep7 (human, N-terminal biotin)
T7 construct: Synthetic 20-mer of human IL-33
T7 peptide: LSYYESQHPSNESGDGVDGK

T8: Pep2 (human, N-terminal biotin)
T8 construct: Synthetic 20-mer of human IL-33
T8 peptide: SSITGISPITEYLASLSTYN

T9: Pep16 (human, N-terminal biotin)
T9 construct: Synthetic 20-mer of human IL-33
T9 peptide: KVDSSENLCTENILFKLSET

T10: Pep8 (human, N-terminal biotin)
T10 construct: Synthetic 20-mer of human IL-33
T10 peptide: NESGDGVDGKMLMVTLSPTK

T11: Pep10 (human, N-terminal biotin)
T11 construct: Synthetic 20-mer of human IL-33
T11 peptide: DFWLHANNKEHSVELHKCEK

T12: Pep15 (human, N-terminal biotin)
T12 construct: Synthetic 20-mer of human IL-33
T12 peptide: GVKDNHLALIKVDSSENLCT

T13: Pep12 (human, N-terminal biotin)
T13 construct: Synthetic 20-mer of human IL-33
T13 peptide: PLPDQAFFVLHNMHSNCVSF

T14: IL-33 mutant protein K70A (human, UniProt O95760 112-270)
T14 construct: Prokaryotic expression
T14 chain: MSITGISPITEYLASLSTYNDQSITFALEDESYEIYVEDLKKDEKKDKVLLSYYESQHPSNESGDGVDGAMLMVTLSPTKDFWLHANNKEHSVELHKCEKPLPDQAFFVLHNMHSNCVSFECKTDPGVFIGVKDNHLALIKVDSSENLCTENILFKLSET

T15: IL-33 mutant protein N61A (human, UniProt O95760 112-270)
T15 chain: T14 chain with N61A, A70K

B1: 874F7 (antibody, V domains shown)
VH: QVQLKESGPGLVAPSHSLSITCNVSGFSLSKYGVHWIRQIPGRGLDWLGVLRAGGSTGYNSALMSRLSISKDSSKSQVFLKMNDLRTDDTAVYFCVRDHYYYSSYGGFVYWGQGTLVTVSA
VL: DIQMTQSPASQSASLGESVTITCLASQTIGAWLAWYRQQPGKSPQLLIYAATRLADGVPSRFSGSGSGTEFSFKINNLQAEDFVSYYCQQLDSSPYTFGGGTRLEM
notes: Murine hybridoma antibody purified on Protein G; also called murine antibody 874F7
B2: 874F7-Hu1 (antibody, human IgG4 S228P, kappa)
heavy: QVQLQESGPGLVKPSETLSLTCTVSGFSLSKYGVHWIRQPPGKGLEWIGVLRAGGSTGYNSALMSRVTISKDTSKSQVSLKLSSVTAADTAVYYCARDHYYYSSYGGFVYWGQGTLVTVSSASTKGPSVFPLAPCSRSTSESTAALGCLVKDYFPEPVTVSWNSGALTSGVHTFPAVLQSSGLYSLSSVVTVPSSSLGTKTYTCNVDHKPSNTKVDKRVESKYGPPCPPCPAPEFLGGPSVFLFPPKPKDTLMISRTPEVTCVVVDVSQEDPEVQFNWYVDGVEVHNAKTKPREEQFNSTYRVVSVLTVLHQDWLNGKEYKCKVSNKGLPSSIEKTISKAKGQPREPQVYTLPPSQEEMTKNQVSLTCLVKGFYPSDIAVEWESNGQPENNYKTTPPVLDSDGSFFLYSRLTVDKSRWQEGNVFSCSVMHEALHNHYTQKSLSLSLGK
light: DIQMTQSPSSVSASVGDRVTITCLASQTIGAWLAWYQQKPGKSPKLLIYAATRLADGVPSRFSGSGSGTDFTLTISSLQPEDFATYYCQQLDSSPYTFGQGTKVEIKRTVAAPSVFIFPPSDEQLKSGTASVVCLLNNFYPREAKVQWKVDNALQSGNSQESVTEQDSKDSTYSLSSTLTLSKADYEKHKVYACEVTHQGLSSPVTKSFNRGEC
notes: also called 874F7-Hul; humanized antibody 874F7-Hu1

Experiments:
Pep5 = biological target: T1, Pep5; assay: ELISA, biotinylated peptide on streptavidin plate, antibody 10 µg/mL, well 1
Procedure: (§1) To determine the binding activity of antibody to each polypeptide fragment, the ELISA plate was pre-coated by biotin-avidin (SA) which was diluted in coating solution (50 mM carbonate coating buffer, pH 9.6) to 2 μg/ml at 4° C. overnight. The plate was washed with PBST for 3 times, and then blocked with 2% BSA prepared in PBS at room temperature for 2 h with 200 μL/well. The plate was washed once with PBST, and 864F3 and 874F7 with final concentrations of 10 μg/mL were added at 100 μL/well, respectively, and the plate was incubated at room temperature for 1 h. The plate was washed with PBST for 3 times, and the goat anti-mouse IgG labeled by HRP was added and placed at 37° C. for 30 min. After washing the plate with PBST for 3 times, the plate was patted on the absorbent paper to remove residual droplets as far as possible. 100 μl TMB developing solution was added to each well, and the plate was placed at room temperature (20±5° C.) for 5 minutes away from light; 50 μl 2M H₂SO₄ terminating solution was added to each well to terminate the substrate reaction. OD values were read at 450 nm on the microplate reader to analyze the binding ability of the antibody to each polypeptide fragment. The experimental results are shown in […]

Pep3 = biological target: T2, Pep3; assay: as above
Procedure: as §1

Pep9 = biological target: T3, Pep9; assay: as above
Procedure: as §1

Pep14 = biological target: T4, Pep14; assay: as above
Procedure: as §1

Pep13 = biological target: T5, Pep13; assay: as above
Procedure: as §1

Pep6 = biological target: T6, Pep6; assay: as above
Procedure: as §1

Pep7 = biological target: T7, Pep7; assay: as above
Procedure: as §1

Pep2 = biological target: T8, Pep2; assay: as above
Procedure: as §1

Pep16 = biological target: T9, Pep16; assay: as above
Procedure: as §1

Pep8 = biological target: T10, Pep8; assay: as above
Procedure: as §1

Pep10 = biological target: T11, Pep10; assay: as above
Procedure: as §1

Pep15 = biological target: T12, Pep15; assay: as above
Procedure: as §1

Pep12 = biological target: T13, Pep12; assay: as above
Procedure: as §1

[1] = biological target: T14, IL-33 mutant protein K70A; assay: ELISA as Example 9; row K70A against WT-3
Procedure: (§2) SA protein was diluted to 2 μg/mL to coat ELISA plate at 100 μL/well overnight at 4° C. The plate was washed with PBST (PBS containing 0.05% Tween20) for 3 times, and blocked with 2% BSA prepared in PBS at 200 μL/well, at room temperature for 2 h. After the plate was washed twice with PBST, IL-33-his-biotin protein was diluted to 1 μg/mL with 1% BSA prepared in PBST, and was added to ELISA plate at 100 μL/well. The plate was incubated at room temperature for 1 h, and each monoclonal antibody was diluted with 1% BSA prepared in PBST in a 3-fold gradient. The highest concentration of antibody was 10 μg/mL, and the antibody was diluted for 12 gradients. Each diluted monoclonal antibody was added to ELISA wells with 100 μL/well, and the plate was incubated at room temperature for 1 h. Each sample was added to duplicate wells in parallel. The plate was washed with PBST for 3 times, and HRP-anti human IgG Fc secondary antibody prepared with PBST was diluted at an appropriate ratio, and was added to ELISA wells at 100 μL/well. […] Each reaction solution was shaken uniformly and OD450 nm was read on a microplate reader. The data was analyzed and EC₅₀ was calculated.
(§3) Subsequently, according to the experimental method of Example 9, the affinity of the above mutant proteins to 874F7-Hu1 was determined, and IL-33 proteins (WT-1, WT-2, WT-3, and WT-4) without any mutation were set as controls.

[2] = biological target: T15, IL-33 mutant protein N61A; assay: ELISA as Example 9; row N61A against WT-3
Procedure: as §2, §3

Row | Binder | OD450 (Pep5) [OD450] | OD450 (Pep3) [OD450] | OD450 (Pep9) [OD450] | OD450 (Pep14) [OD450] | OD450 (Pep13) [OD450] | OD450 (Pep6) [OD450] | OD450 (Pep7) [OD450] | OD450 (Pep2) [OD450] | OD450 (Pep16) [OD450] | OD450 (Pep8) [OD450] | OD450 (Pep10) [OD450] | OD450 (Pep15) [OD450] | OD450 (Pep12) [OD450] | Affinity decline ratio [1] [fold] | Affinity decline ratio [2] [fold]
1 | B1 | 0.05 | 0.053 | 0.065 | 0.059 | 0.054 | 1.04 | 0.055 | 0.056 | 0.049 | 0.053 | 0.053 | 0.055 | 0.056 | – | –
2 | B2 | – | – | – | – | – | – | – | – | – | – | – | – | – | 0.6 | 0.8
